The results in this text go back to patent US20250332197A1 (SUNSHINE LAKE PHARMA, published 2025).

The target of experiment [1] is T1, claudin-18.2 antigen (manufacturer: GenScript, batch number: R50092011) (UniProt P56856-2 1-261, limits assumed).
T1 construct: Bought antigen
T1 sequence (looked up): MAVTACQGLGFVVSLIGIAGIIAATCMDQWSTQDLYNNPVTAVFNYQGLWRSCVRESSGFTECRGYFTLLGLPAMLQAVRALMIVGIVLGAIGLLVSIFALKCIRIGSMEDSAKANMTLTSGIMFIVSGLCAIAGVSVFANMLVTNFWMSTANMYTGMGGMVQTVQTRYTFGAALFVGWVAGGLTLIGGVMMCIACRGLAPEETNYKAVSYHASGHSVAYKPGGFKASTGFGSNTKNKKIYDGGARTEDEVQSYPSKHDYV
Nature of the experiment: ELISA, plate coated with claudin-18.2 antigen. As to the method: The ELISA plates were washed three times with PBST and blocked with 5% PBS-milk for 2 h at room temperature. The ELISA plate was washed three times with PBST, and the diluted antibodies were added to the ELISA plate, 30 μL per well, and incubated at room temperature for 60 min. The plates were washed three times with PBST and incubated with anti-human IgG-Fc-HRP (abcam, ab97225) for 50 min at room temperature. The plate was washed 12 times with PBST, and TMB was added, 30 μL per well. The reaction was terminated with stop solution and OD450 was read. The ELISA affinity EC50 was calculated.
For orientation: An ELISA detects its analyte on a solid surface through an enzyme-linked reagent.

The target in experiment [2] is T1, claudin-18.2 antigen (manufacturer: …). Nature of the experiment: Gator label-free kinetics, antibody loaded, antigen 2000-500 nM. The procedure: The GATOR instrument and associated software were opened and the Kinetics experimental mode was selected. After data collection, Kinetics fitting was performed to calculate the affinity kinetic parameters. The correlation coefficient R² of all antibodies in the Global fitting mode was greater than 0.95, which met the system suitability requirements and the results were reliable.

B1: 1B6-huVH5-HC (IgG1) huVL3 (antibody)
heavy: not shown
light: DIQMTQSPSSLSASVGDRVTITCRSSQSLFNSGNQKNYLTWYQQKPGKAPKLLIYWASTRESGVPSRFSGSGSGTDFTLTISSLQPEDFATYYCQNDYSYPLTFGGGTKLEIKRTVAAPSVFIFPPSDEQLKSGTASVVCLLNNFYPREAKVQWKVDNALQSGNSQESVTEQDSKDSTYSLSSTLTLSKADYEKHKVYACEVTHQGLSSPVTKSFNRGEC
notes: humanized 1B6, human IgG1, kappa
The EC50 is the concentration at which the effect is half-maximal. A higher EC50 goes with lower potency in that assay. What is called Kd is the equilibrium constant for the complex coming apart. What is called koff is the rate constant with which the complex falls apart. A lower koff goes with slow dissociation. As usually defined, the kon is the rate constant with which the complex forms. A low value points to slower complex formation. In experiment [1], B1 yielded a half-maximal effective concentration (EC50) of 0.035 µg/mL. Further, in experiment [2], the Kd came out at 76.8 nM, the koff amounted to 0.00175 s⁻¹ and the kon was found to be 22700 M⁻¹ s⁻¹.

B2: 1B6-huVH1huVL1 (antibody, human IgG4 S228P, kappa)
heavy: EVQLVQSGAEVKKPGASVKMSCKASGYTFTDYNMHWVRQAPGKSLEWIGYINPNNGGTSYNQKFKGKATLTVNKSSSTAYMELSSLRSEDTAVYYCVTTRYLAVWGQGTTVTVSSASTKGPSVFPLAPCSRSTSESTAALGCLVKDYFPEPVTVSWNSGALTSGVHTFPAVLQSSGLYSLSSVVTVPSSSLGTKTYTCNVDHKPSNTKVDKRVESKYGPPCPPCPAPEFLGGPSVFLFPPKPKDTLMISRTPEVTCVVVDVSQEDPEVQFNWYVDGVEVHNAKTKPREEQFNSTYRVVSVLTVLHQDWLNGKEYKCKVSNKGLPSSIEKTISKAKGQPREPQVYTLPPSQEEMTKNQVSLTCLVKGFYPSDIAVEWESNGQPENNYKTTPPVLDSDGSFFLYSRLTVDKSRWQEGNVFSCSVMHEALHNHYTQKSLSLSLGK
light: DIVMTQSPSSLSVSVGDRVTMTCKSSQSLFNSGNQKNYLTWYQQKPGKAPKLLIYWASTRESGVPDRFSGSGSGTDFTLTISSVQPEDFATYFCQNDYSYPLTFGGGTKLEIKRTVAAPSVFIFPPSDEQLKSGTASVVCLLNNFYPREAKVQWKVDNALQSGNSQESVTEQDSKDSTYSLSSTLTLSKADYEKHKVYACEVTHQGLSSPVTKSFNRGEC
notes: humanized 1B6, human IgG4, kappa
In experiment [1], B2 yielded an EC50 of 0.0839 µg/mL. In experiment [2], the dissociation constant (Kd) turned out to be 98.8 nM, the koff came out at 0.00222 s⁻¹ and the on-rate (kon) is 22400 M⁻¹ s⁻¹.
